This note sets out measurements from patent publication US20250352667A1.

Test [1] concerns the target KEAP1 (wild-type full-length), His-tagged (human) (UniProt Q14145). In words: AlphaScreen; 9.6 nM FLAG-NRF2, 150 nM His-KEAP1; wild type set to 100%. In general terms: Alpha assays give light when donor and acceptor beads are brought close together.
For test [2] the target is unchanged. The test can be described thus: AlphaScreen; 4.8 nM FLAG-NRF2, 150 nM His-KEAP1; Rep 2; control for I86V.
The target is the same in test [3]. In words: AlphaScreen; 19.2 nM FLAG-NRF2, 150 nM His-KEAP1; Rep 1; control for I86V.
For test [4] the target is unchanged. In words: AlphaScreen; 38.4 nM FLAG-NRF2, 150 nM His-KEAP1; Rep 3; control for I86V.
The target is the same in test [5]. In words: AlphaScreen; 38.4 nM FLAG-NRF2, 150 nM His-KEAP1 (same value as in Table 26).
Test [6] has the same target. The test can be described thus: AlphaScreen; FLAG-NRF2 wt isoform 1 153.6 nM, His-KEAP1 150 nM; Rep 1; positive control for Q75R.
Test [7] has the same target. The test can be described thus: AlphaScreen; FLAG-NRF2 wt isoform 1 9.6 nM, His-KEAP1 150 nM; Repeat 2; positive control for Q75R.
Test [8] has the same target. The test can be described thus: AlphaScreen; NRF2 wt isoform 1 9.6 nM, KEAP1 150 nM; signal against NRF2-only control; control for Q75R.
The target is the same in test [9]. In words: AlphaScreen; NRF2 wt isoform 1 153.6 nM, KEAP1 150 nM; signal against NRF2-only control; control for Q75R.
Test [10] shares this target. The test can be described thus: AlphaScreen; 19.2 nM FLAG-NRF2, 150 nM His-KEAP1; Rep 1.
For test [11] the target is unchanged. In words: AlphaScreen; 19.2 nM FLAG-NRF2, 150 nM His-KEAP1; signal against NRF2 only.
For test [12] the target is unchanged. In words: AlphaScreen; 19.2 nM FLAG-NRF2, 150 nM His-KEAP1 (same value as in Table 27).
Test [13] has the same target. The test can be described thus: AlphaScreen; mean over 9.6, 19.2 and 38.4 nM NRF2; 150 nM His-KEAP1; against wild-type NRF2 isoform 1.
Test [14] shares this target. The test can be described thus: AlphaScreen; FLAG-NRF2 Q75R 2.4 nM, His-KEAP1 150 nM; Rep 2.
For test [15] the target is unchanged. In words: AlphaScreen; FLAG-NRF2 Q75R 19.2 nM, His-KEAP1 150 nM; Rep 1.
The target is the same in test [16]. In words: AlphaScreen; FLAG-NRF2 Q75R 1228.8 nM, His-KEAP1 150 nM; Rep 1.
Test [17] has the same target. In words: AlphaScreen; FLAG-NRF2 Q75R 9.6 nM, His-KEAP1 150 nM; Repeat 1.
Test [18] shares this target. In words: AlphaScreen; FLAG-NRF2 Q75R 19.2 nM, His-KEAP1 150 nM; Repeat 2.
Test [19] has the same target. The test can be described thus: AlphaScreen; FLAG-NRF2 Q75R 38.4 nM, His-KEAP1 150 nM; Repeat 1.
Test [20] shares this target. In words: AlphaScreen; NRF2 Q75R 9.6 nM, KEAP1 150 nM; signal against NRF2-only control.
Test [21] shares this target. In words: AlphaScreen; FLAG-NRF2 I86V 9.6 nM, His-KEAP1 150 nM; Rep 3.
For test [22] the target is unchanged. The test can be described thus: AlphaScreen; FLAG-NRF2 I86V 19.2 nM, His-KEAP1 150 nM; Rep 1.
Test [23] shares this target. In words: AlphaScreen; FLAG-NRF2 I86V 19.2 nM, His-KEAP1 150 nM; Rep 2.
For test [24] the target is unchanged. The test can be described thus: AlphaScreen; FLAG-NRF2 I86V 76.8 nM, His-KEAP1 150 nM; Rep 2.
The target is the same in test [25]. The test can be described thus: AlphaScreen; FLAG-NRF2 I86V 307.2 nM, His-KEAP1 150 nM; Rep 2.
Test [26] shares this target. In words: AlphaScreen; NRF2 I86V 38.4 nM, KEAP1 150 nM; signal against NRF2-only control.
Test [27] has the same target. The test can be described thus: AlphaScreen; NRF2 I86V 614.4 nM, KEAP1 150 nM; signal against NRF2-only control.
Test [28] shares this target. The test can be described thus: AlphaScreen; NRF2 I86V 1228.8 nM, KEAP1 150 nM; signal against NRF2-only control.

Chain of KEAP1 (wild-type full-length), His-tagged (human) (Q14145 2-624 limits assumed): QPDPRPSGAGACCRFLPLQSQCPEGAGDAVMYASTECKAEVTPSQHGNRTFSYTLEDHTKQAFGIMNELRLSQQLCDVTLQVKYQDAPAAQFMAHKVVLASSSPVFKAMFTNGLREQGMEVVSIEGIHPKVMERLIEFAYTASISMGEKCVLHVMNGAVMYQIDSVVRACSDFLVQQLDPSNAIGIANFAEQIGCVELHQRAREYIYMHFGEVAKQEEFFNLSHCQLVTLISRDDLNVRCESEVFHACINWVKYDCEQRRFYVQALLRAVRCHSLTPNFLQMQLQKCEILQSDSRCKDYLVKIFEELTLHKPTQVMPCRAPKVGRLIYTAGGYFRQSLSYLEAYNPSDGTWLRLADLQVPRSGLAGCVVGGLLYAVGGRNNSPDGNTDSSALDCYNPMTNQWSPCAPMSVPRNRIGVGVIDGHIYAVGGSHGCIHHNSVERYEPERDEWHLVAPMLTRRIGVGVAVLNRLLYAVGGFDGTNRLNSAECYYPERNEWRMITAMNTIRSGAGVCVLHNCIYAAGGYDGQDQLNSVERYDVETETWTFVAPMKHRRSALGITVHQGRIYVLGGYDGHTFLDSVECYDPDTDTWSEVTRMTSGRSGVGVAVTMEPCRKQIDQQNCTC

B1: NRF2 isoform 1 (wild-type full-length), FLAG-tagged (protein)
chain: MMDLELPPPGLPSQQDMDLIDILWRQDIDLGVSREVFDFSQRRKEYELEKQKKLEKERQEQLQKEQEKAFFAQLQLDEETGEFLPIQPAQHIQSETSGSANYSQVAHIPKSDALYFDDCMQLLAQTFPFVDDNEVSSATFQSLVPDIPGHIESPVFIATNQAQSPETSVAQVAPVDLDGMQQDIEQVWEELLSIPELQCLNIENDKLVETTMVPSPEAKLTEVDNYHFYSSIPSMEKEVGNCSPHFLNAFEDSFSSILSTEDPNQLTVNSLNSDATVNTDFGDEFYSAFIAEPSISNSMPSPATLSHSLSELLNGPIDVSDLSLCKAFNQNHPESTAEFNDSDSGISLNTSPSVASPEHSVESSSYGDTLLGLSDSEVEELDSAPGSVKQNGPKTPVHSSGDMVQPLSPSQGQSTHVHDAQCENTPEKELPVSPGHRKTPFTKDKHSSRLEAHLTRDELRAKALHIPFPVEKIINLPVVDFNEMMSKEQFNEAQLALIRDIRRRGKNKVAAQNCRKRKLENIVELEQDLDHLKDEKEKLLKEKGENDKSLHLLKKQLSTLYLEVFSMLRDEDGKPYSPSEYSLQQTRDGNVFLVPKSKKPDVKKN
For B1, the Binding Percentage (%) in test [1] worked out at 100%. Further, the figures for the A-counts in [2], in test [3] and in [4] were 1620 A-counts, 3300 A-counts and 3130 A-counts, respectively. Also, the S/N came to 3.6 in test [5], 3 in [8] and 2.1 in test [9]. The A-counts (NRF2 plus KEAP1) in test [6] was 1380 A-counts; in [7], 900 A-counts.

B2: NRF2 isoform 1 (I28V full-length), FLAG-tagged (protein)
chain: MMDLELPPPGLPSQQDMDLIDILWRQDVDLGVSREVFDFSQRRKEYELEKQKKLEKERQEQLQKEQEKAFFAQLQLDEETGEFLPIQPAQHIQSETSGSANYSQVAHIPKSDALYFDDCMQLLAQTFPFVDDNEVSSATFQSLVPDIPGHIESPVFIATNQAQSPETSVAQVAPVDLDGMQQDIEQVWEELLSIPELQCLNIENDKLVETTMVPSPEAKLTEVDNYHFYSSIPSMEKEVGNCSPHFLNAFEDSFSSILSTEDPNQLTVNSLNSDATVNTDFGDEFYSAFIAEPSISNSMPSPATLSHSLSELLNGPIDVSDLSLCKAFNQNHPESTAEFNDSDSGISLNTSPSVASPEHSVESSSYGDTLLGLSDSEVEELDSAPGSVKQNGPKTPVHSSGDMVQPLSPSQGQSTHVHDAQCENTPEKELPVSPGHRKTPFTKDKHSSRLEAHLTRDELRAKALHIPFPVEKIINLPVVDFNEMMSKEQFNEAQLALIRDIRRRGKNKVAAQNCRKRKLENIVELEQDLDHLKDEKEKLLKEKGENDKSLHLLKKQLSTLYLEVFSMLRDEDGKPYSPSEYSLQQTRDGNVFLVPKSKKPDVKKN
In turn, B2 returned an A-counts in test [10] of 1730 A-counts. The S/N in test [11] and in test [12] was 3.2 throughout. The molecule also yielded an Avg. Reduction in Binding in [13] of 30.2%.

B3: NRF2 isoform 1 (Q75R full-length), FLAG-tagged (protein)
chain: MMDLELPPPGLPSQQDMDLIDILWRQDIDLGVSREVFDFSQRRKEYELEKQKKLEKERQEQLQKEQEKAFFAQLRLDEETGEFLPIQPAQHIQSETSGSANYSQVAHIPKSDALYFDDCMQLLAQTFPFVDDNEVSSATFQSLVPDIPGHIESPVFIATNQAQSPETSVAQVAPVDLDGMQQDIEQVWEELLSIPELQCLNIENDKLVETTMVPSPEAKLTEVDNYHFYSSIPSMEKEVGNCSPHFLNAFEDSFSSILSTEDPNQLTVNSLNSDATVNTDFGDEFYSAFIAEPSISNSMPSPATLSHSLSELLNGPIDVSDLSLCKAFNQNHPESTAEFNDSDSGISLNTSPSVASPEHSVESSSYGDTLLGLSDSEVEELDSAPGSVKQNGPKTPVHSSGDMVQPLSPSQGQSTHVHDAQCENTPEKELPVSPGHRKTPFTKDKHSSRLEAHLTRDELRAKALHIPFPVEKIINLPVVDFNEMMSKEQFNEAQLALIRDIRRRGKNKVAAQNCRKRKLENIVELEQDLDHLKDEKEKLLKEKGENDKSLHLLKKQLSTLYLEVFSMLRDEDGKPYSPSEYSLQQTRDGNVFLVPKSKKPDVKKN
On to B3, for which the A-counts (NRF2 plus KEAP1) in test [14] stood at 566 A-counts; in test [15] it was 1300 A-counts; in [16], 705 A-counts; in test [17] it was 1180 A-counts; in [18], 1280 A-counts; in test [19] it was 1200 A-counts. The S/N in [20] amounted to 2.4.

B4: NRF2 isoform 1 (I86V full-length), FLAG-tagged (protein)
chain: MMDLELPPPGLPSQQDMDLIDILWRQDIDLGVSREVFDFSQRRKEYELEKQKKLEKERQEQLQKEQEKAFFAQLQLDEETGEFLPVQPAQHIQSETSGSANYSQVAHIPKSDALYFDDCMQLLAQTFPFVDDNEVSSATFQSLVPDIPGHIESPVFIATNQAQSPETSVAQVAPVDLDGMQQDIEQVWEELLSIPELQCLNIENDKLVETTMVPSPEAKLTEVDNYHFYSSIPSMEKEVGNCSPHFLNAFEDSFSSILSTEDPNQLTVNSLNSDATVNTDFGDEFYSAFIAEPSISNSMPSPATLSHSLSELLNGPIDVSDLSLCKAFNQNHPESTAEFNDSDSGISLNTSPSVASPEHSVESSSYGDTLLGLSDSEVEELDSAPGSVKQNGPKTPVHSSGDMVQPLSPSQGQSTHVHDAQCENTPEKELPVSPGHRKTPFTKDKHSSRLEAHLTRDELRAKALHIPFPVEKIINLPVVDFNEMMSKEQFNEAQLALIRDIRRRGKNKVAAQNCRKRKLENIVELEQDLDHLKDEKEKLLKEKGENDKSLHLLKKQLSTLYLEVFSMLRDEDGKPYSPSEYSLQQTRDGNVFLVPKSKKPDVKKN
B4: the A-counts (NRF2 plus KEAP1) in test [21] is 2860 A-counts; in [22] it was 3120 A-counts; in [23], 3160 A-counts; in test [24], 2800 A-counts; in [25], 2120 A-counts. In addition, the S/N in [26] is 2.9; in [27] it was 1.1; in test [28], 0.9.
